Reference: US6054572

Biological target: human fibronectin purified from a human plasma fraction on Gelatin Sepharose (human) (UniProt P02751)

Substance “D1-D4 (709-886) polypeptide of the fibronectin binding protein of Staphylococcus aureus J2385, expressed from pBROC 520 in E. coli BL21 (DE3)” has a % Adherence Inhibition of S. aureus 8325.4 to fibronectin-coated PMMA coverslips (at 100 µg/ml D1-D4 (709-886)) of 97.5% and a % Adherence Inhibition of S. aureus J2385 to fibronectin-coated PMMA coverslips (at 100 µg/ml D1-D4 (709-886)) of 78.4%.
